Assay results published in patent US20220281997A1 (published 2022).

Assays:
Experiment in all cases: SPR
[1] = target: AS656 VHH
[2] = target: His-tag camel-derived nanobody AS718 VHH-His
[3] = target: AS200 VHH
[4] = target: AS325 VHH
[5] = target: AS519 VHH
[6] = target: AS988 VHH
[7] = target: AS588 VHH
[8] = target: AS675 VHH
[9] = target: AS673 VHH
[10] = target: AS154 VHH
Chain of AS154 VHH (VHH, as listed by the source): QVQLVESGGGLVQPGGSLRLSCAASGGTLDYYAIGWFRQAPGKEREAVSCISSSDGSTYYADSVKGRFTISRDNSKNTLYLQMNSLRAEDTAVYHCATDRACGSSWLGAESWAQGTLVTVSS

Chain of AS675 VHH (VHH, as listed by the source): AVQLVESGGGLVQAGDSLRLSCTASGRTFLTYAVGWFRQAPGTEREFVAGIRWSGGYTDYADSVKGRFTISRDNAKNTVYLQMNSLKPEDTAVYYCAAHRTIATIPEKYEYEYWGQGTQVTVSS
Chain of AS200 VHH (VHH, as listed by the source): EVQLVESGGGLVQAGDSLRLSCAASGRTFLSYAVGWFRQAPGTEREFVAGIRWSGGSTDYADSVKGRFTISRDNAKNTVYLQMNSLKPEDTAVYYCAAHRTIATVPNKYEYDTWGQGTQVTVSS
Chain of AS656 VHH (VHH, as listed by the source): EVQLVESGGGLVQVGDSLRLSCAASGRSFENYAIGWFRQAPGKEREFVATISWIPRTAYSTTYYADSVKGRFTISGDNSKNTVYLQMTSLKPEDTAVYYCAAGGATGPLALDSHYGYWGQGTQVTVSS
Chain of AS588 VHH (VHH, as listed by the source): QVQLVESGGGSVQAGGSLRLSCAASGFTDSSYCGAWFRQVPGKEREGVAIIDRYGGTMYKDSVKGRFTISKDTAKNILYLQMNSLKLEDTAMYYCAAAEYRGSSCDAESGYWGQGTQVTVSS
Chain of AS519 VHH (VHH, as listed by the source): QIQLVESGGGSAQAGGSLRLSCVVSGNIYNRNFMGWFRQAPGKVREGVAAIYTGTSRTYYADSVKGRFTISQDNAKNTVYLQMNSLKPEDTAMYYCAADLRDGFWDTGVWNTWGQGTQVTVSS
Chain of AS988 VHH (VHH, as listed by the source): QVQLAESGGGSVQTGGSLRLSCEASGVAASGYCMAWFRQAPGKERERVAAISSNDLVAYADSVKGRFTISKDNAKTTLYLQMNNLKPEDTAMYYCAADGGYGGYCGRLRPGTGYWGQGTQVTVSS
Chain of AS673 VHH (VHH, as listed by the source): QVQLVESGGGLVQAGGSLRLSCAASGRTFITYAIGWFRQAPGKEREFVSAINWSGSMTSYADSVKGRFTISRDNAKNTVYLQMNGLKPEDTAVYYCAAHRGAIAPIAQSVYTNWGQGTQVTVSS
Chain of AS325 VHH (VHH, as listed by the source): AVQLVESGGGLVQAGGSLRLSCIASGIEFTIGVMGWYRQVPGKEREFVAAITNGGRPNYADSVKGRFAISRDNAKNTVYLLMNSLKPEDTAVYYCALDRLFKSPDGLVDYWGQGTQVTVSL
Chain of His-tag camel-derived nanobody AS718 VHH-His (VHH, as listed by the source): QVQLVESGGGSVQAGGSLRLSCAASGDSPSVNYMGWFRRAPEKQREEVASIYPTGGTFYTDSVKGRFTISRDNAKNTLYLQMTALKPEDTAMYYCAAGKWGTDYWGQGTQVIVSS

- Kd [1]: 1.34 pM
- Kd [2]: 3.47 pM
- Kd [3]: 11.8 pM
- Kd [4]: 4.04 pM
- Kd [5]: 1.66 pM
- Kd [6]: 7.08 pM
- Kd [7]: 7.09 pM
- Kd [8]: 34.5 pM
- Kd [9]: 4.36 pM
- Kd [10]: 402 pM
B1: R166.C5 (antibody, V domains shown)
VH: QSVEESGGRLVTPGTPLTLTCTVSGFSLRNFAMSWVRQAPGKGLEWIGIIYSGGTRDYATWAKGRFTISKTSTTVDLKMTSPTTEDTATYFCARDRSPDYSAAFLLWGQGTLVTVSS
VL: IVMTQTPSSKSVPVGDTVTINCQASESVYSNNHLAWFQQKPGQPPKLLIYSASTLESGVPSRFKGSGSGTQFTLTISGVQCDDAATYYCAGYKSSDTDGTSFGGGTEVVVKG
